Test results published in publication PMC4946999 (ACS chemical biology, 2016).
Values belong to the molecule of their own block, whether it stands above or below them.

Legend:
[1] = biological target: FITC-labeled PIASγ peptide derived from the essential PIASγ LXXLL motif; assay: fluorescence polarisation
SEC = biological target: the molecule itself; assay: SEC

Kd [1]: 3.5 µM
Molecule: Nurr1 ligand-binding domain (LBD) (from UniProt P43354 328-598) (domain or fragment)

B1: Nurr1 ligand-binding domain (LBD) (domain or fragment)
chain: MVKEVVRTDSLKGRRGRLPSKPKSPQEPSPPSPPVSLISALVRAHVDSNPAMTSLDYSRFQANPDYQMSGDDTQHIQQFYDLLTGSMEIIRGWAEKIPGFADLPKADQDLLFESAFLELFVLRLAYRSNPVEGKLIFCNGVVLHRLQCVRGFGEWIDSIVEFSSNLQNMNIDISAFSCIAALAMVTERHGLKEPKRVEELQNKIVNCLKDHVTFNNGGLNRPNYLSKLLGKLPELRTLCTQGLQRIFYLKLEDLVPPPAIIDKLFLDTLPF
stoichiometry N (SEC): 2
